Data on one molecule can be found in patent publication US20260285964 (published 2026).

For one test, the target named is T1, mouse IL-36R (IL-1Rrp2) (mouse, UniProt Q9ERS7).
T1 chain: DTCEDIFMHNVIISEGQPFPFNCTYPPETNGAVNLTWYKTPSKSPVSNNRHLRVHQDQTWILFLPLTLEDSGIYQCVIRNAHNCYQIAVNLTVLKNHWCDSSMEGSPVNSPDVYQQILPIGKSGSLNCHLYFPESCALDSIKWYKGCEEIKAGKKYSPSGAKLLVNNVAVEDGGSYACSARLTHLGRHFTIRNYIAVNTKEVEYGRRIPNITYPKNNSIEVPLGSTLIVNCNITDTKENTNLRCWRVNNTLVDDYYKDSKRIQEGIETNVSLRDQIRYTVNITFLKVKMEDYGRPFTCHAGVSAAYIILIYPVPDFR

The target in a further test is T2, rat IL-36R (rat, UniProt Q62929).
T2 chain: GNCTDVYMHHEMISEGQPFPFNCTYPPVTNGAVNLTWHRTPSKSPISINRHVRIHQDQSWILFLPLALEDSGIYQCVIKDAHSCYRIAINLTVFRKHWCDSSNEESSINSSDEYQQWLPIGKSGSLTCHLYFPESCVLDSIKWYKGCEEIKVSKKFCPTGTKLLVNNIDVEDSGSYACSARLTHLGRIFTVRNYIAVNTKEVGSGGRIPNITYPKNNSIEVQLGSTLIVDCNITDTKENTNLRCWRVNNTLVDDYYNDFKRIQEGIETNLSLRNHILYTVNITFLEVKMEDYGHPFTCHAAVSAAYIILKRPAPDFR

B1: HB0034 (antibody, V domains shown)
VH: QVQLVQSGAEVKKPGASVKVSCKASGYTFTSSWMHWAKQAPGQGLEWIGEIHPNSAKTNYNQKFQGRVTMTRDTSISTAYMELSRLRSDDTAVYYCARVDYGKPWFAYWGQGTLVTVSS
VL: QIVLTQSPGTLSLSPGERATLSCRASSSVSSSYLHWYQQKPGQAPRLWIYSTSSRATGIPDRFSGSGSGTDFTLTISRLEPEDFATYYCQQFQSSPLTFGQGTKLEIK
For the molecule B1, the binding result with mouse IL-36R (IL-1Rrp2) and with rat IL-36R was “no binding” each time.
